The text below walks through data of patent US20120244132A1 (published 2012).

The target in this assay is T1, latent membrane protein 2 (LMP-2) from the Epstein Barr Virus (EBV) peptide on HLA-A*02:01 (human).
T1 peptide: CLGGLLTMV
Nature of the assay: multimer staining.

B1: EBVa14-p2A-Vb7.7 (LMP-2-specific TCR of SEQ ID No. 8) (TCR, V domains shown)
Valpha: AQKITQTQPGMFVQEKEAVTLDCTYDTSDQSYGLFWYKQPSSGEMIFLIYQGSYDEQNATEGRYSLNFQKARKSANLVISASQLGDSAMYFCAMREGSGSARQLTFGSGTQLTVLP
Vbeta: GAGVSQSPRYKVTKRGQDVTLRCDPISSHATLYWYQQALGQGPEFLTYFNYEAQPDKSGLPSDRFSAERPEGSISTLTIQRTEQRDSAMYRCASSLGPAGIQETQYFGPGTRLLVL
On to B1, for which the binding result is listed as “recognises”.
